Experimental data reported in US20040166543A1 (Dana-Farber, published 2004).

Biological target: T1, MUC1 (full-length wild-type DF3/MUC1 glycoprotein) (human, UniProt P15941 24-1255)
T1 construct: whole, on cells; One entry for endogenous and transfected wild-type MUC1; Co-immunoprecipitated from NP-40 lysates with mAb DF3; also called wild-type MUC1
Assay: co-IP from ZR-75-1 lysate: anti-MUC1 IP, anti-PKCµ blot (FIG. 13B)

B1: PKCµ (protein kinase Cµ), endogenous in ZR-75-1 cells (enzyme, human, UniProt Q15139 1-912, looked up)
chain: MSAPPVLRPPSPLLPVAAAAAAAAAALVPGSGPGPAPFLAPVAAPVGGISFHLQIGLSREPVLLLQDSSGDYSLAHVREMACSIVDQKFPECGFYGMYDKILLFRHDPTSENILQLVKAASDIQEGDLIEVVLSASATFEDFQIRPHALFVHSYRAPAFCDHCGEMLWGLVRQGLKCEGCGLNYHKRCAFKIPNNCSGVRRRRLSNVSLTGVSTIRTSSAELSTSAPDEPLLQKSPSESFIGREKRSNSQSYIGRPIHLDKILMSKVKVPHTFVIHSYTRPTVCQYCKKLLKGLFRQGLQCKDCRFNCHKRCAPKVPNNCLGEVTINGDLLSPGAESDVVMEEGSDDNDSERNSGLMDDMEEAMVQDAEMAMAECQNDSGEMQDPDPDHEDANRTISPSTSNNIPLMRVVQSVKHTKRKSSTVMKEGWMVHYTSKDTLRKRHYWRLDSKCITLFQNDTGSRYYKEIPLSEILSLEPVKTSALIPNGANPHCFEITTANVVYYVGENVVNPSSPSPNNSVLTSGVGADVARMWEIAIQHALMPVIPKGSSVGTGTNLHRDISVSISVSNCQIQENVDISTVYQIFPDEVLGSGQFGIVYGGKHRKTGRDVAIKIIDKLRFPTKQESQLRNEVAILQNLHHPGVVNLECMFETPERVFVVMEKLHGDMLEMILSSEKGRLPEHITKFLITQILVALRHLHFKNIVHCDLKPENVLLASADPFPQVKLCDFGFARIIGEKSFRRSVVGTPAYLAPEVLRNKGYNRSLDMWSVGVIIYVSLSGTFPFNEDEDIHDQIQNAAFMYPPNPWKEISHEAIDLINNLLQVKMRKRYSVDKTLSHPWLQDYQTWLDLRELECKIGERYITHESDDLRWEKYAGEQGLQYPTHLINPSASHSDTPETEETEMKALGERVSIL
notes: whole, on cells
binding result: no binding
